{"source": "patent US20240190903", "about": "“COMPOUNDS FOR PROGRAMMABLE PROTEIN DEGRADATION AND METHODS OF USE FOR THE TREATMENT OF DISEASE” (Mayo Foundation for Medical Education and Research, published 2024)", "target": "p53 WT (UniProt P04637 P04637:1-393)", "sequence (P04637 whole entry, one chain of several)": "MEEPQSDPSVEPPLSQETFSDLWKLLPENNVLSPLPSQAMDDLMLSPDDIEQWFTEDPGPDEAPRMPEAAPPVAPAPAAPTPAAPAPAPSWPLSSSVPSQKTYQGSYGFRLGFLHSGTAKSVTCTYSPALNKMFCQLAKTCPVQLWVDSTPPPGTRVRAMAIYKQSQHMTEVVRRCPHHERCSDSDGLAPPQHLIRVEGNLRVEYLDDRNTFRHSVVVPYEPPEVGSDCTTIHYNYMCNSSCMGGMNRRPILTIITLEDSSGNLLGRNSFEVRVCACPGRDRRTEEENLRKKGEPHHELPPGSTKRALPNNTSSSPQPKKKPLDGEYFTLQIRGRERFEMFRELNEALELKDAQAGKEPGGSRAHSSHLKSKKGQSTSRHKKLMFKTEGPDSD", "assay": "EMSA; GST-p53 purified from bacteria", "conditions": "tags: GST; chain copies: 4; label: biotin", "method": "For supershift assay, anti-p53 antibodies were added into the cell nuclear extract mixed with the biotin-labeled probes and the mixture were incubated with for 1 hour at room temperature before loading into 6% of non-denatured polyacrylamide gel."}
{"binder": "CTNNB1 probe 1 (MP53BS) (dsDNA) DNA 1: GCCCCCTCGCGCCCCGCCCCTTGTC DNA 2: GACAAGGGGCGGGGCGCGAGGGGGC", "values": [{"measurement": "binding result", "result": "no binding"}]}
